# Experimental data published in article PMC11296239.
# T1: RORα (mouse, UniProt P51448 1-523)
# T1 sequence: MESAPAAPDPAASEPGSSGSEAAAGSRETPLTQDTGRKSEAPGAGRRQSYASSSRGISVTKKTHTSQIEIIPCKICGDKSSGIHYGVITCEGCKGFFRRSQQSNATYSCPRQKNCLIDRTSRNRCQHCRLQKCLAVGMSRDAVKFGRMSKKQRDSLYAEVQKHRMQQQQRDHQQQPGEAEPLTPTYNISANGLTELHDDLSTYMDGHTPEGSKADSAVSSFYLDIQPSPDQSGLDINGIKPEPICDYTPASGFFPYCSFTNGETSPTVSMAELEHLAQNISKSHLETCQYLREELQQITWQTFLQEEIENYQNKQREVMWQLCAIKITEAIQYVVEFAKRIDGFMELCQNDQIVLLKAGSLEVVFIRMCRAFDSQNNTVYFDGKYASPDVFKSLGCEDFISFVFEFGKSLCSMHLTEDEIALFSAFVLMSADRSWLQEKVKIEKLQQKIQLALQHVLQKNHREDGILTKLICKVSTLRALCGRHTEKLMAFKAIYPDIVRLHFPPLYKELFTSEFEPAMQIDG
# T2: Rev-erbα (mouse, UniProt Q3UV55 1-615)
# T2 sequence: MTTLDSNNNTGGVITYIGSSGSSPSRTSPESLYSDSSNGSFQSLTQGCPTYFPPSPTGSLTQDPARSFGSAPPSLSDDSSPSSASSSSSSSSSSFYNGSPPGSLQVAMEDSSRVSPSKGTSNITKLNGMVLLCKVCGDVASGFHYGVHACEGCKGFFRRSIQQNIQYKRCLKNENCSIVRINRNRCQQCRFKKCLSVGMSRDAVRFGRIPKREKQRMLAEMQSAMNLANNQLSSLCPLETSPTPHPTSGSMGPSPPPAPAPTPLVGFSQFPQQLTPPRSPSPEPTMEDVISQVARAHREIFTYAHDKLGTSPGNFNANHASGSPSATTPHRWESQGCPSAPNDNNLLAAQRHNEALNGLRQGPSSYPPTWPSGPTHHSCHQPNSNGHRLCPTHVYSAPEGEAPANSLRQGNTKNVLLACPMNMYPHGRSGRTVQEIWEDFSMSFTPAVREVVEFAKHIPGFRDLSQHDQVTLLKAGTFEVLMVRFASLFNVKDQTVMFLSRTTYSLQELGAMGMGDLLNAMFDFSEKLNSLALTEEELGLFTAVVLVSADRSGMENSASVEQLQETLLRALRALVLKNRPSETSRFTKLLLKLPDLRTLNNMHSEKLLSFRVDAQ
# B1: mut h-RRE1 (dsDNA)
# DNA 1: TTCCTCAACAGCCGATACATTGTTTC
# DNA 2: GAAACAATGTATCGGCTGTTGAGGAA
# B2: mut h-RRE2 (dsDNA)
# DNA 1: TCACCTGCTTGACGGCTTGACAGACCG
# DNA 2: CGGTCTGTCAAGCCGTCAAGCAGGTGA
# Tests used:
# [1] = target: T1, RORα; test: EMSA
# [2] = target: T2, Rev-erbα; test: EMSA
Binder,binding result [1],binding result [2]
B1,no binding,no binding
B2,no binding,no binding
